Data published in US20040087497.

Legend:
[1] = test system: T1, Suc-βAla-Ile-Ala-Leu-Dox
T1 sequence: XIAX

[2] = test system: T2, Suc-βAla-Leu-Ala-Leu-pNA
T2 sequence: XLAX

[3] = test system: T3, Suc-βAla-Leu-Tyr-Leu-Dox
T3 sequence: XLYX

[4] = test system: T4, Suc-Ile-Ala-Leu-Dox
T4 sequence: XAX

[5] = test system: T5, Suc-Leu-Tyr-Leu-Dox
T5 sequence: XYX

[6] = test system: T6, Suc-Leu-Ala-Gly-Dox
T6 sequence: XAX

[7] = test system: T7, Suc-Met-Ala-Leu-Dox
T7 sequence: XAX

[8] = test system: T8, Suc-Leu-Ala-Leu-Dox
T8 sequence: XAX

[9] = test system: T9, Suc-βAla-Leu-Ala-Leu-Dox
T9 sequence: XLAX

[10] = scale: fraction relative to Suc-βAla-Leu-Ala-Leu-Dox

## purified Porcine Kidney CD10 (Elastin Products Company)
[1]
  % hydrolysis/10 hr (% hydrolysis/10 hr): 22.1
  Cleaved by CD10: +
[1]; [10]
  Fraction hydrolyzed relative to standard: 2
[2]
  rate of cleavage (release of Leu-pNA) relative to Suc-βAla-Leu-Ala-Leu-Dox (release of Leu-Dox): 590 times more rapidly cleaved
[3]
  % hydrolysis/10 hr (% hydrolysis/10 hr): 0
[3]; [10]
  Fraction hydrolyzed relative to standard: 0
[4]
  % hydrolysis/10 hr (% hydrolysis/10 hr): 12.5
  Cleaved by CD10: +
[4]; [10]
  Fraction hydrolyzed relative to standard: 1.1
[5]
  % hydrolysis/10 hr (% hydrolysis/10 hr): 0
[5]; [10]
  Fraction hydrolyzed relative to standard: 0
[6]
  % hydrolysis/10 hr (% hydrolysis/10 hr): 0
  Cleaved by CD10: -
[6]; [10]
  Fraction hydrolyzed relative to standard: 0
[7]
  % hydrolysis/10 hr (% hydrolysis/10 hr): 37.7
[7]; [10]
  Fraction hydrolyzed relative to standard: 3.5
[8]
  % hydrolysis/10 hr (% hydrolysis/10 hr): 8.3
  Cleaved by CD10: +
[8]; [10]
  Fraction hydrolyzed relative to standard: 0.75
[9]
  % hydrolysis/10 hr (% hydrolysis/10 hr): 10.9
  Cleaved by CD10: +
[9]; [10]
  Fraction hydrolyzed relative to standard: 1

## thimet oligopeptidase
[1]
  Cleavage by thimet oligopeptidase: -
[4]
  Cleavage by thimet oligopeptidase: -
[6]
  Cleavage by thimet oligopeptidase: +
[8]
  Cleavage by thimet oligopeptidase: +
[9]
  Cleavage by thimet oligopeptidase: +
